Experiment [1] concerns the target fusion construct of the CD4 V-domain and CD4 D1-domain of the human CD4 coreceptor (amino acids 1-184) with … (human, UniProt P01730 26-209). Briefly: ELISA, mutein coated on plate, digoxigenin-conjugated CD4-VD1 titrated from 2000 nM, anti-digoxigenin Fab-AP detection, apparent KD from curve fit. The procedure: (§1) After washing five times with 100 μl PBST/0.05 per well employing an automated ELISA plate washer, the wells were filled with 100 μl PBST containing 3% w/v non-fat dry milk powder (Vitalia), in order to saturate unspecific binding sites and incubated for one hour at room temperature. After blocking, the microtiter plate was washed two times with 100 μl PBST/0.05 as described above.
(§2) Then a dilution series of conjugates of digoxigenin and either the prescribed protein target CD4-VD1 or the unrelated control protein RNaseB, both produced as described in Example 25, was prepared in PBST starting from 2000 nM concentration and incubated for 1 h at room temperature. Subsequently, plates were washed again five times like above and 20 μl of an anti-digoxigenin-Fab-fragment-alkaline phosphatase-conjugate (Roche), diluted 1:1000 in PBST was added to each well and incubated for 1 hour at room temperature. Plates were washed again five times as described above and 20 μl of the fluorogenic substrate AttoPhos (Roche; prepared as described by the manufacturer) was added to detect bound CD4-VD1 by means of the attached digoxigenin groups. After 10 minutes at room temperature fluorescence was excited at a wavelength of 430 nm (±17.5 nm) and measured at 535 nm (÷12.5 nm) in a GENiosPlus plate reader.
The resulting binding curves were fitted by non-linear least squares regression as described in Example 8 and are depicted in FIG. 14 and FIG. 15. The values obtained for the apparent dissociation constants of the complexes between the BBP muteins CD4-2C3-K20, CD4-2C3-N22, CD4-2G3-H22, CD4-2G3-L22, CD4-7B4-K21, CD4-7B4-K23, and CD4-7B4-N14 and the prescribed target protein CD4-VD1 as well as for the complexes between the BBP muteins and the control protein RNaseB are summarized in Table 11.
Background: An ELISA detects its analyte on a solid surface through an enzyme-linked reagent.

The target in experiment [2] is T1, RNaseB (UniProt P61823 27-150).
T1 construct: also called unrelated control protein RNaseB
T1 sequence (looked up): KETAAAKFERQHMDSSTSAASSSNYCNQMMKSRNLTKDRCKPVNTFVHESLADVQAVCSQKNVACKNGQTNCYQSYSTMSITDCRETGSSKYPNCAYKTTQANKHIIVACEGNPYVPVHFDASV
Briefly: ELISA: BBP mutein coated on the plate, digoxigenin-conjugated RNaseB titrated 0-2000 nM, detected with anti-digoxigenin Fab-alkaline phosphatase, fluorescence (Example 27). The procedure:
as §1, §2

Experiment [3] concerns the target T2, type I horse ferritin (horse, UniProt P02791 2-175; Q8MIP0 2-182, limits assumed).
T2 construct: the natural protein is a shell of light and heavy chains
The experiment is described as follows: ELISA, ferritin coated on plate, mutein titrated from 1000 nM, anti-T7-HRP detection, apparent KD from curve fit. The procedure:
(§3) Afterwards, the wells were washed and blocked as described in Example 8.
(§4) Then, a dilution series of the BBP muteins from Example 11 in SA-buffer was prepared in PBST starting from 1000 nM concentration and incubated for 1 h at room temperature. Subsequently, plates were washed again five times, anti-T7 monoclonal antibody-HRP-conjugate was added and incubated for 1 hour at room temperature followed by washing and addition of fluorogenic HRP-substrate QuantaBlu™ as described in Example 8. After 10 minutes at room temperature fluorescence was excited at a wavelength of 320 nm (±12.5 nm) and measured at 430 nm (±17.5 nm) in a GENiosPlus plate reader.
The resulting binding curves were fitted by non-linear least squares regression as described in Example 8 and are depicted in FIG. 8. The values obtained for the apparent dissociation constants of the complexes between the BBP muteins and the prescribed target ferritin are summarized in Table 5.

In experiment [4] the target is T2, type I horse ferritin. The experiment is described as follows: high-throughput ELISA screening, crude cell extract, ferritin or aldolase coated on plate, anti-T7-HRP detection; Fer-N22 is one of the clones taken on from these 14. The procedure:
For the detection of binding, these cell extracts were tested for their reactivity on the prescribed target type I horse ferri tin as well as the unrelated control protein aldolase in ELISA experiments. Therefore, wells of black Fluotrac 600 ELISA plates (Greiner; 384 well) were coated overnight with 20 μl of a solution of ferritin (Sigma) or aldolase (Roche) at 4° C., each at a concentration of 20 μg/ml in PBS. Plates were washed five times with 100 μl PBST/0.05 per well with an automated ELISA plate washer (Molecular Devices) leaving a residual volume of 10 μl of the washing buffer in each well after the last washing step. Residual binding sites were blocked by incubation with 100 μl PBST/0.05 containing 2% w/v BSA for 2 h at room temperature. Afterwards, plates were again washed five times as described above.
For complex formation between the BBP muteins and the immobilized proteins, the wells were incubated with 10 μl of the blocked cell extract from above for 1 hour at room temperature. […] After 60 minutes at room temperature fluorescence was excited at a wavelength of 320 nm (±12.5 nm) and measured at 430 nm (±17.5 nm) in a GENiosPlus plate reader (Tecan).

The target in experiment [5] is T1, RNaseB. Briefly: ELISA, RNaseB coated on plate, anti-T7-HRP detection. The procedure:
as §3, §4

Experiment [6] concerns the target T3, extracellular domain of human CD154 (human, UniProt P29965 47-261).
T3 construct: extracellular domain; Colony screening: conjugate with digoxigenin
T3 sequence (looked up): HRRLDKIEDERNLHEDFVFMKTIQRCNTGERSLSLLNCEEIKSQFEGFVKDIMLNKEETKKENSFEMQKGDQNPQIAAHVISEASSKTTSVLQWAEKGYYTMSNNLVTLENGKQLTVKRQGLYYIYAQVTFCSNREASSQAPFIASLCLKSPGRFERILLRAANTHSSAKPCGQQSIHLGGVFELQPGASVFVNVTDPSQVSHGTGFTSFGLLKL
Briefly: ELISA, CD154 coated on plate, mutein titrated from 2000 nM, anti-Strep-tag II-HRP detection, apparent KD from curve fit. The procedure:
as §1
Then a dilution series of the muteins from Example 16 in SA-buffer was prepared in PBST starting from 2000 nM concentration and incubated for 1 h at room temperature. Subsequently, plates were washed again five times like above and 20 μl of an anti-Strep-tag® II monoclonal antibody-HRP-conjugate (IBA), diluted 1:1000 in PBST was added to each well and incubated for 1 hour at room temperature. Plates were again washed five times as described above and 20 μl of the fluorogenic HRP-substrate QuantaBlu™ (diluted as described by the manufacturer) was added to detect bound BBP muteins by means of the attached anti-Strep-tag® II monoclonal antibody-HRP-conjugate. After 10 minutes at room temperature fluorescence was excited at a wavelength of 320 nm (±12.5 nm) and measured at 430 nm (±17.5 nm) in a GENiosPlus plate reader.
The resulting binding curves were fitted by non-linear least squares regression as described in Example 8 and are depicted in FIG. 11. […]

A further experiment has as its target T4, BSA (UniProt P02769 25-607).
T4 construct: Control protein coated on the ELISA plate; also called unrelated control protein BSA
The experiment is described as follows: ELISA: BSA coated on the plate as control, BBP mutein titrated 0-2000 nM, detected with anti-Strep-tag II antibody-HRP, fluorescence (Example 17).

We go through nine molecules from US20070148201A1 (Pieris, published 2007).

T4 sequence (P02769 25-607 limits assumed): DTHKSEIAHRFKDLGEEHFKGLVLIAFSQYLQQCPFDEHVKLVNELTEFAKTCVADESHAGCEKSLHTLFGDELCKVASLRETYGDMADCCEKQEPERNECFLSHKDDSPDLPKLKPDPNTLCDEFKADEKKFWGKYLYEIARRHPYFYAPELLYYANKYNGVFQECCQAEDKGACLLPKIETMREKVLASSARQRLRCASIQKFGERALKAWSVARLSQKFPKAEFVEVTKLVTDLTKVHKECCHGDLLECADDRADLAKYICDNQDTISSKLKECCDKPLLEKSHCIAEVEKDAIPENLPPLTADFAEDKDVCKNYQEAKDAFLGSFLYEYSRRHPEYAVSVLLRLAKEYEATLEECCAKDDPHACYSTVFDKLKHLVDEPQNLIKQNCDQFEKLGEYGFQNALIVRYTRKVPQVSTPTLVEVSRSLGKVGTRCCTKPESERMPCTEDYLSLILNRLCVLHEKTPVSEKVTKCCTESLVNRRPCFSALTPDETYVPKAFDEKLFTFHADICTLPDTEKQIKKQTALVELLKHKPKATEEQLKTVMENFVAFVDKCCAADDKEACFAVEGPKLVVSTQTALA
T2 sequence (P02791 2-175 limits assumed, chain 1 of 2): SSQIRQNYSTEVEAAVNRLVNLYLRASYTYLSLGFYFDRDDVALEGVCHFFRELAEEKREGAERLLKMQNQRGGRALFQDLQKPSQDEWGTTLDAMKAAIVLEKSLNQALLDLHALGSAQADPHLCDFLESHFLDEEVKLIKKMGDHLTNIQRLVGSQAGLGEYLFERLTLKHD
T2 sequence (Q8MIP0 2-182 limits assumed, chain 2 of 2): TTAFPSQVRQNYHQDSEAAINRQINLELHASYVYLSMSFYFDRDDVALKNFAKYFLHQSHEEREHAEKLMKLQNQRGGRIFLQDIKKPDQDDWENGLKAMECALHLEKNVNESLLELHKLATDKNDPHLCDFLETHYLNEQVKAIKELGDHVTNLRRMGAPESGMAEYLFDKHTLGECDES

B1: BBP mutein CD4-7B4-N14 (designed binder)
chain: DVYHDGACPEVKPVDNFDWSQYHGKWWEVAKYPNRAEIGGKCGWAEYTPEGKSVKVSNYHVIKQWEKFIEGTAYPVGDSKIGKIYHSLTGTGSTKENVFNVLSTDNKNYIIGYYCNYHESRKGHRDFVWVLSRSMVLTGEAKTAVENYLIGSPVVDSQKLVYSDFSEAACKVNN
Consider B1, for which, in experiment [1], the Kd worked out at 177 nM. In addition, the binding result with RNaseB [2] is “no binding (tested: 2000 nM)”.

B2: BBP mutein CD4-7B4-K23 (designed binder)
chain: DVYHDGACPEVKPVDNFDWSQYHGKWWEVAKYPNGNELRGKCGWAEYTPEGKSVKVSNYHVINTSEGFIEGTAYPVGDSKIGKIYHSLTNTGMTKENVFNVLSTDNKNYIIGYYCSWEVSKGHHDFVWVLSRSMVLTGEAKTAVENYLIGSPVVDSQKLVYSDFSEAACKVNNS
For the molecule B2, the Kd in experiment [1] came out at 169 nM. The binding result in the experiment with RNaseB [2] is recorded as “no binding (tested: 2000 nM)”.

B3: BBP mutein CD4-2C3-N22 (designed binder)
chain: DVYHDGACPEVKPVDNFDWSQYHGKWWEVAKYPNAKESPGKCGWAEYTPEGKSVKVSNYHVIQRLEGFIEGTAYPVGDSKIGKIYHSLTTWGLTKENVFNVLSTDNKNYIIGYYCGYVEKSKGHPDFVWVLSRSMVLTGEAKTAVENYLIGSPVVDSQKLVYSDFSEAACKVNN
Turning to B3, the Kd in experiment [1] turned out to be 185 nM. Moreover, the binding result with RNaseB [2] was “no binding (tested: 2000 nM)”.

B4: BBP mutein CD4-2G3-H22 (designed binder)
chain: DVYHDGACPEVKPVDNFDWSQYHGKWWEVAKYPNMTEVKGKCGWAEYTPEGKSVKVSNYHVIREKEWFIEGTAYPVGDSKIGKIYHSLTISGLTKENVFNVLSTDDKNYIIGYYCKYMELWKGHRDFVWVLSRSMVLTGEAKTAVENYLIGSPVVDSQKLVYSDFSEAACKVNN
Turning to B4, the Kd in experiment [1] was determined as 105 nM. In addition, the binding result with RNaseB [2] is “no binding (tested: 2000 nM)”.

B5: BBP mutein CD4-2G3-L22 (designed binder)
chain: DVYHDGACPEVKPVDNFDWSQYHGKWWEVAKYPNIAELGGKCGWAEYTPEGKSVKVSNYHVINWNEMFIEGTAYPVGDSKIGKISHSLTKVGQTKENVFNVLSTDNKNYIIGYYCQYSERAKGHLDFVWVLSRSMVLTGEAKTAVENYLIGSPVVDSQKLVYSDFSEAACKVNN
In the case of B5, the Kd in experiment [1] came out at 200 nM. The binding result with RNaseB [2] is “no binding (tested: 2000 nM)”.

B6: BBP mutein Fer-N22 (designed binder)
chain: DVYHDGACPEVKPVDNFDWSQYHGKWWEVAKYPNGGESPGKCGWAEYTPEGKSVKVSNYHVIKKRERFIEGTAYPVGDSKIGKICHSLTWSGLTKENVFNVLSTDNKNYIIGYYCKYKERKKGHGDFVWVLSRSMVLTGEAKTAVENYLIGSPVVDSQKLVYSDFSEAACKVNN
notes: Tested as expressed from pBBP47: C-terminal T7 tag followed by Strep-tag II
On to B6, for which the Kd with type I horse ferritin [3] worked out at 45 nM. For the same molecule, the “signal-to-control ratio (ferritin against aldolase)” value with type I horse ferritin [4] was above 5. In addition, the binding result in the experiment with RNaseB [5] is “no binding (tested: dilution series starting from 1000 nM)”.

B7: BBP mutein CD154-13-10-4 (designed binder)
chain: DVYHDGACPEVKPVDNFDWSQYHGKWWEVAKYPNSHETGGKCGWAEYTPEGKSVKVSNYHVITPHERFIEGTAYPVGDSKIGKIYHSLTWIGTTKENVFNVLSTDNKNYIIGYYCSYSEAGKGHQDFVWVLSRSMVLTGEAKTAVENYLIGSPVVDSQKLVYSDFSEAACKVNN
Turning to B7, the Kd in experiment [6] is 174 nM. For the same molecule, the binding result with BSA is on record as “no binding (tested: 2000 nM)”.

B8: BBP mutein CD4-2C3-K20 (designed binder)
chain: DVYHDGACPEVKPVDNFDWSQYHGKWWEVAKYPNTSEHSGKCGWAEYTPEGKSVKVSNYHVIKKKERFIEGTAYSAGDSKIGKIYHSLTSVGKTKENVFNVLSTDNKNYIIGYYCSYKEKTKGHGDFVWVLSRSMVLTGEAKTAVENYLIGSPVVDSQKLVYSDFSEAACKVNN
As for B8, the Kd in experiment [1] came to 136 nM. Moreover, the binding result in the experiment with RNaseB [2] is “no binding (tested: 2000 nM)”.

B9: BBP mutein CD154-13-10-1 (designed binder)
chain: DVYHDGACPEVKPVDNFDWSQYHGKWWEVAKYPNQIEQGGKCGWAEYTPEGKSVKVSNYHVIYASEDFIEGTAYPVGDSKIGKIYHSLTSSGVTKENVFNVLSTDNKNYIIGYYCGYREAPKGHMDFVWVLSRSMVLTGEAKTAVENYLIGSPVVDSQKLVYSDFSEAACKVNN
For the molecule B9, in experiment [6], the Kd was 89 nM. Moreover, in the experiment with BSA, the binding result is recorded as “no binding (tested: 2000 nM)”.
